The text below walks through data of patent publication US20110150894A1.

The target in this assay is activated β1 integrin on bovine capillary endothelial (CE) cells (bovine) (UniProt P53712). Description: cell-based or functional assay.
Chain of activated β1 integrin on bovine capillary endothelial (CE) cells (bovine) (P53712 21-798): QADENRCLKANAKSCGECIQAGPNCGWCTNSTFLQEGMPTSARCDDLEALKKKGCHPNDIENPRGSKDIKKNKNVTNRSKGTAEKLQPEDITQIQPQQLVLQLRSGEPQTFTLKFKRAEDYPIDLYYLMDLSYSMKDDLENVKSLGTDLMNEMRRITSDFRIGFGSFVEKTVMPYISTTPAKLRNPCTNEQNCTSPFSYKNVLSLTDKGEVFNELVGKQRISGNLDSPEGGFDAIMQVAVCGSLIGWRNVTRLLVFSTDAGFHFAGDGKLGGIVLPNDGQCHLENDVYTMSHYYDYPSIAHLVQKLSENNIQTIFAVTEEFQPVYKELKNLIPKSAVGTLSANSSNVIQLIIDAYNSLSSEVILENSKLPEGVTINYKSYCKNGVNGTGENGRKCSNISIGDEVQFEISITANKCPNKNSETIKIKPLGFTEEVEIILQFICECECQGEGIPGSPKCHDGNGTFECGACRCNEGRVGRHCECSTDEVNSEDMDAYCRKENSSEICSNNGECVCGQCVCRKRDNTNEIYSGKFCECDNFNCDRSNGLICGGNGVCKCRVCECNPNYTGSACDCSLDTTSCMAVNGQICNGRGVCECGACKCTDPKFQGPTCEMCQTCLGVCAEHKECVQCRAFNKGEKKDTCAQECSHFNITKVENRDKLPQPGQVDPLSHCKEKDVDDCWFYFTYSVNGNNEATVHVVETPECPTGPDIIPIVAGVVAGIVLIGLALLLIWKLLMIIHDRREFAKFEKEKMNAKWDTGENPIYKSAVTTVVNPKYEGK

The substance “function-blocking anti-β1 integrin (P5D2) antibody” had a decrease in strain-induced cell realignment of 70%.
